US20220289833A1 (BIOSION, published 2022)

Key:
[1] = molecular target: T1, Recombinant human TSLP-his (human, UniProt Q969D9 29-159); assay: SPR, Biacore T200; protocol of Example 2
T1 construct: Prepared in-house; Amine-coupled to CM5 chip in SPR, loaded on APS sensors in Octet, biotin-labeled in the capture ELISA, unlabeled in the cell functional assays; also called human TSLP-his protein
Description: (§1) Briefly, Biosion in house synthesized recombinant human TSLP-his (SEQ ID NO.: 28) or cynomolgus monkey TSLP-his protein (SEQ ID NO.: 29) in CH₃COONa buffer (provided by Biocore) at the concentration of 10 μg/mL was covalently linked to a CM5 chip (carboxy methyl dextran coated chip from GE healthcare #BR100530) via primary amines, using a standard amine coupling kit provided by Biacore (GE healthcare, Pittsburgh, Pa., USA). Un-reacted moieties on the biosensor surface were blocked with ethanolamine. […] The antigen-antibody association kinetics was followed for 4 minutes and the dissociation kinetics was followed for 13 minutes. The association and dissociation curves were fit to a 1:1 Langmuir binding model using BIAcore evaluation software, and the KD, Kₐ and Kd values were determined and shown in Table 2 below.

[2] = molecular target: T1, Recombinant human TSLP-his; assay: SPR, Biacore T200; below the instrument limit, roughly calculated from the sensorgram
Description: as §1

[3] = molecular target: T1, Recombinant human TSLP-his; assay: SPR, Biacore T200; TSLP-his amine-coupled to CM5 chip, antibody as analyte; 1:1 Langmuir fit
Description: as §1

Row | Binder | Kd [1] [nM] | koff [1] [s⁻¹] | kon [1] [M⁻¹ s⁻¹] | koff [2] [s⁻¹] | Kd [3] [nM] | koff [3] [s⁻¹] | kon [3] [M⁻¹ s⁻¹]
1 | hu1C5F12E9-V16 (antibody, human IgG4 S228P, kappa, V domains shown) VH: QVQLVQSGAEVKKPGASVKVSCKASGYTFTTYWMHWVRQAPGQGLEWMGVIDPSDSDTTYNQKFKGRATMTRDTSTSTVYMELSSLRSEDTAVYYCTRSLDGYYDYWGQGTLVTVSS VL: DIQMTQSPSSLSASVGDRVTITCRPTENIYSYLAWYQQKPGKSPKLLIYFARTLAEGVPSRFSGSGSGTDFTLTISSLQPEDFATYYCQHHYGTPWTFGGGTKVEIKR | < 0.0962 | < 1e-05 | 104000 | ~1.17e-06 |  |  | 
2 | hu1C5F12E9-V18 (antibody, human IgG4 S228P, kappa, V domains shown) VH: QVQLVQSGAEVKKPGASVKVSCKASGYTFTTYWMHWVRQAPGQGLEWMGVIDPSDSDTTYNQKFKGKATMTVDTSTSTVYMELSSLRSEDTAVYYCTRSLDGYYDYWGQGTLVTVSS VL: DIQMTQSPSSLSASVGDRVTITCRPTENIYSYLAWYQQKPGKSPKLLIYFARTLAEGVPSRFSGSGSGTDFTLTISSLQPEDFATYYCQHHYGTPWTFGGGTKVEIKR | < 0.0826 | < 1e-05 | 121000 | ~9.65e-06 |  |  | 
3 | hu1C5F12E9-V13 (antibody, human IgG4 S228P, kappa, V domains shown) VH: QVQLVQSGAEVKKPGASVKVSCKASGYTFTTYWMHWVRQAPGQGLEWIGVIDPSDSDTTYNQKFKGRATLTVDTSSSTAYMELSSLRSEDTAVYYCTRSLDGYYDYWGQGTLVTVSS VL: DIQMTQSPSSLSASVGDRVTITCRPTENIYSYLAWYQQKPGKSPKLLIYFARTLAEGVPSRFSGSGSGTDFTLTISSLQPEDFATYYCQHHYGTPWTFGGGTKVEIKR | < 0.0962 | < 1e-05 | 104000 | ~3.62e-07 |  |  | 
4 | hu1C5F12E9-V5 (antibody, human IgG4 S228P, kappa, V domains shown) VH: QVQLVQSGAEVKKPGASVKVSCKASGYTFTTYWMHWVRQAPGQGLEWMGVIDPSDSDTTYNQKFKGKATMTRDTSTSTVYMELSSLRSEDTAVYYCTRSLDGYYDYWGQGTLVTVSS VL: DIQMTQSPSSLSASVGDRVTITCRPTENIYSYLAWYQQKPGKSPKLLVYFARTLAEGVPSRFSGSGSGTDFTLTISSLQPEDFATYYCQHHYGTPWTFGGGTKVEIKR | < 0.0971 | < 1e-05 | 103000 | < 1e-05 |  |  | 
5 | hu1C5F12E9-V17 (antibody, human IgG4 S228P, kappa, V domains shown) VH: QVQLVQSGAEVKKPGASVKVSCKASGYTFTTYWMHWVRQAPGQGLEWMGVIDPSDSDTTYNQKFKGKATMTRDTSTSTVYMELSSLRSEDTAVYYCTRSLDGYYDYWGQGTLVTVSS VL: DIQMTQSPSSLSASVGDRVTITCRPTENIYSYLAWYQQKPGKSPKLLIYFARTLAEGVPSRFSGSGSGTDFTLTISSLQPEDFATYYCQHHYGTPWTFGGGTKVEIKR | < 0.0909 | < 1e-05 | 110000 | ~6.43e-06 |  |  | 
6 | hu1C5F12E9-V11 (antibody, human IgG4 S228P, kappa, V domains shown) VH: QVQLVQSGAEVKKPGASVKVSCKASGYTFTTYWMHWVRQAPGQGLEWMGVIDPSDSDTTYNQKFKGKATMTRDTSTSTVYMELSSLRSEDTAVYYCTRSLDGYYDYWGQGTLVTVSS VL: DIQMTQSPSSLSASVGDRVTITCRPTENIYSYLAWYQQKPGKAPKLLIYFARTLAEGVPSRFSGSGSGTDFTLTISSLQPEDFATYYCQHHYGTPWTFGGGTKVEIKR | < 0.11 | < 1e-05 | 90700 | ~7.56e-07 |  |  | 
7 | hu1C5F12E9-V7 (antibody, human IgG4 S228P, kappa, V domains shown) VH: QVQLVQSGAEVKKPGASVKVSCKASGYTFTTYWMHWVRQAPGQGLEWIGVIDPSDSDTTYNQKFKGRATLTVDTSSSTAYMELSSLRSEDTAVYYCTRSLDGYYDYWGQGTLVTVSS VL: DIQMTQSPSSLSASVGDRVTITCRPTENIYSYLAWYQQKPGKAPKLLIYFARTLAEGVPSRFSGSGSGTDFTLTISSLQPEDFATYYCQHHYGTPWTFGGGTKVEIKR | < 0.0926 | < 1e-05 | 108000 | < 1e-05 |  |  | 
8 | 1G3B9B1 (antibody, V domains shown, Mouse hybridoma mAb) VH: QVQLQQPGTELVKPGASVKMSCKASGYTFTTYWMHWVKQRPGQGLEWIGVIDPSDSDTTYNQKFKGKATLTVDTSSSTAYMQLSSLTSEDSAVYYCTRSLDGYYDYWGQGTTLTVSS VL: DIQMTQSPASLSASVGETVTITCRPTENIYSYLAWYQQKQGKSPHLLVYFARTLAEGVPSRFSGSGSGTQFSLKINSLQPEDFGIYYCQHHYGTPWTFGGGTKLEIK |  |  |  |  | < 0.107 | < 1e-05 | 93600

Further lines, results first:

Row | Kd [1] [nM] | koff [1] [s⁻¹] | kon [1] [M⁻¹ s⁻¹] | koff [2] [s⁻¹] | Kd [3] [nM] | koff [3] [s⁻¹] | kon [3] [M⁻¹ s⁻¹] | Binder
9 | < 0.0971 | < 1e-05 | 103000 | < 1e-05 |  |  |  | hu1C5F12E9-V3 (antibody, human IgG4 S228P, kappa, V domains shown) VH: QVQLVQSGAEVKKPGASVKVSCKASGYTFTTYWMHWVRQAPGQGLEWMGVIDPSDSDTTYNQKFKGRVTMTVDTSTSTVYMELSSLRSEDTAVYYCTRSLDGYYDYWGQGTLVTVSS VL: DIQMTQSPSSLSASVGDRVTITCRPTENIYSYLAWYQQKPGKSPKLLVYFARTLAEGVPSRFSGSGSGTDFTLTISSLQPEDFATYYCQHHYGTPWTFGGGTKVEIKR
10 | < 0.082 | < 1e-05 | 122000 | ~6.57e-07 |  |  |  | hu1C5F12E9-V9 (antibody, human IgG4 S228P, kappa, V domains shown) VH: QVQLVQSGAEVKKPGASVKVSCKASGYTFTTYWMHWVRQAPGQGLEWMGVIDPSDSDTTYNQKFKGRVTMTVDTSTSTVYMELSSLRSEDTAVYYCTRSLDGYYDYWGQGTLVTVSS VL: DIQMTQSPSSLSASVGDRVTITCRPTENIYSYLAWYQQKPGKAPKLLIYFARTLAEGVPSRFSGSGSGTDFTLTISSLQPEDFATYYCQHHYGTPWTFGGGTKVEIKR
11 | < 0.0893 | < 1e-05 | 112000 | ~3.63e-06 |  |  |  | hu1C5F12E9-V15 (antibody, human IgG4 S228P, kappa, V domains shown) VH: QVQLVQSGAEVKKPGASVKVSCKASGYTFTTYWMHWVRQAPGQGLEWMGVIDPSDSDTTYNQKFKGRVTMTVDTSTSTVYMELSSLRSEDTAVYYCTRSLDGYYDYWGQGTLVTVSS VL: DIQMTQSPSSLSASVGDRVTITCRPTENIYSYLAWYQQKPGKSPKLLIYFARTLAEGVPSRFSGSGSGTDFTLTISSLQPEDFATYYCQHHYGTPWTFGGGTKVEIKR
12 | < 0.101 | < 1e-05 | 99300 | < 1e-05 |  |  |  | hu1C5F12E9-V1 (antibody, human IgG4 S228P, kappa, V domains shown) VH: QVQLVQSGAEVKKPGASVKVSCKASGYTFTTYWMHWVRQAPGQGLEWIGVIDPSDSDTTYNQKFKGRATLTVDTSSSTAYMELSSLRSEDTAVYYCTRSLDGYYDYWGQGTLVTVSS VL: DIQMTQSPSSLSASVGDRVTITCRPTENIYSYLAWYQQKPGKSPKLLVYFARTLAEGVPSRFSGSGSGTDFTLTISSLQPEDFATYYCQHHYGTPWTFGGGTKVEIKR
13 | < 0.104 | < 1e-05 | 96100 | < 1e-05 |  |  |  | hu1C5F12E9-V12 (antibody, human IgG4 S228P, kappa, V domains shown) VH: QVQLVQSGAEVKKPGASVKVSCKASGYTFTTYWMHWVRQAPGQGLEWMGVIDPSDSDTTYNQKFKGKATMTVDTSTSTVYMELSSLRSEDTAVYYCTRSLDGYYDYWGQGTLVTVSS VL: DIQMTQSPSSLSASVGDRVTITCRPTENIYSYLAWYQQKPGKAPKLLIYFARTLAEGVPSRFSGSGSGTDFTLTISSLQPEDFATYYCQHHYGTPWTFGGGTKVEIKR
14 |  |  |  |  | < 0.112 | < 1e-05 | 89700 | 1F5H12D7 (antibody, V domains shown) VH: QVQLQQPGTELVKPGASVKMSCKASGYTFTTYWMHWVKQRPGQGLEWIGVIDPSDSDTTYNQKFKGKATLTVDTSSSTAYMQLSSLTSEDSAVYYCTRSLDGYYDYWGQGTTLTVSS VL: DIQMTQSPASLSASVGETVTITCRPTENIYSYLAWYQQKQGKSPHLLVYFARTLAEGVPSRFSGSGSGTQFSLKINSLQPEDFGIYYCQHHYGTPWTFGGGTKLEIK
15 |  |  |  |  | < 0.117 | < 1e-05 | 85200 | 1G2H12A1 (antibody, V domains shown, Mouse hybridoma mAb) VH: QVQLQQPGTELVKPGASVKMSCKASGYTFTTYWMHWVKQRPGQGLEWIGVIDPSDSDTTYNQKFKGKATLTVDTSSSTAYMQLSSLTSEDSAVYYCTRSLDGYYDYWGQGTTLTVSS VL: DIQMTQSPASLSASVGETVTITCRPTENIYSYLAWYQQKQGKSPHLLVYFARTLAEGVPSRFSGSGSGTQFSLKINSLQPEDFGIYYCQHHYGTPWTFGGGTKLEIK
16 |  |  |  |  | < 0.108 | < 1e-05 | 92900 | 1H3F11B7 (antibody, V domains shown, Mouse hybridoma mAb) VH: QVQLQQPGTELVKPGASVKMSCKASGYTFTTYWMHWVKQRPGQGLEWIGVIDPSDSDTTYNQKFKGKATLTVDTSSSTAYMQLSSLTSEDSAVYYCTRSLDGYYDYWGQGTTLTVSS VL: DIQMTQSPASLSASVGETVTITCRPTENIYSYLAWYQQKQGKSPHLLVYFARTLAEGVPSRFSGSGSGTQFSLKINSLQPEDFGIYYCQHHYGTPWTFGGGTKLEIK
